Results as given in patent publication US20120237528A1 (Janssen / Centocor, published 2012).
Positions count from the first letter of the chain named.

B1: M9 (antibody, V domains shown)
VH: EVQLVQSGAEVKKPGESLRISCKGSGYTFITYWIEWVRQMPGKGLEWMGDILPGSGSTNYNENFKGHVTISADKSISTAYLQWSSLKASDTAMYYCARSGYYGNSGFAYWGQGTLVTVSS
VL: DIVMTQSPDSLAVSLGERATINCKSSQSLLSSGNQKNYLTWYQQKPGQPPKLLIYWASTRESGVPDRFSGSGSGTDFTLTISSLQAEDVAVYYCQNDYTYPLTFGQGTKLEIK
notes: complete MAb; FR4 is its own entry; also called H15/L2
B2: M19 (antibody, V domains shown)
VH: QVQLVQSGAEVKKPGASVKVSCKASGYTFITYWIEWVRQAPGQGLEWMGDILPGSGSTNYNENFKGRVTMTRDTSTSTVYMELSSLRSEDTAVYYCARSGYYGNSGFAYWGQGTLVTVSS
VL: DIVMTQTPLSLSVTPGQPASISCKSSQSLLSSGNQKNYLTWYLQKPGQPPQLLIYWASTRESGVPDRFSGSGSGTDFTLKISRVEAEDVGVYYCQNDYTYPLTFGQGTKLEIK
notes: complete MAb; FR4 is its own entry; also called H16/L5
B3: M12 (antibody, V domains shown)
VH: B1 VH
VL: B2 VL
notes: complete MAb; FR4 is its own entry; also called H15/L5
B4: M11 (antibody, V domains shown)
VH: B1 VH
VL: B2 VL with T7S, S12P, Q17E, P49S
notes: complete MAb; FR4 is its own entry; also called H15/L4
B5: M58 (antibody, V domains shown)
VH: B1 VH with N61S, E62P, N63S, K65Q
VL: B1 VL
notes: complete MAb; FR4 is its own entry; also called H22/L2
B6: M16 (antibody, V domains shown)
VH: B2 VH
VL: B1 VL
notes: complete MAb; FR4 is its own entry; also called H16/L2
B7: M1, 10H10 mouse-human chimera (antibody, V domains shown)
VH: QVHLQQSGAELMKPGASVKISCKASGYTFITYWIEWVKQRPGHGLEWIGDILPGSGSTNYNENFKGKATFTADSSSNTAYMQLSSLTSEDSAVYYCARSGYYGNSGFAYWGQGTLVTVSA
VL: DIVMTQSPSSLTVTAGEKVTMSCKSSQSLLSSGNQKNYLTWYQQIPGQPPKLLIYWASTRESGVPDRFTGSGSGTDFTLTINSVQAEDLAVYYCQNDYTYPLTFGAGTKLELK
notes: also called H13/L1; parent chimeric antibody
B8: M59 (antibody, V domains shown)
VH: B1 VH with N61S, E62P, N63S, K65Q
VL: B2 VL with S12P, Q17E, P49S
notes: FR4 is its own entry; also called H22/L3
B9: M1611 (antibody, V domains shown)
VH: B1 VH with I30G, T31P, S57Y, N59T, N61S, E62P, N63S, K65Q
VL: B2 VL with S12P, Q17E, P49S
notes: complete MAb; FR4 is its own entry; also called H128/L3
B10: M1584 (antibody, V domains shown)
VH: B1 VH with I30V, S55T, S57Y, N59V, N61S, E62P, N63S, K65Q
VL: B2 VL with S12P, Q17E, P49S
notes: complete MAb; FR4 is its own entry; also called H173/L3
B11: M1612 (antibody, V domains shown)
VH: B1 VH with I30N, T31P, S55T, S57Y, N61S, E62P, N63S, K65Q
VL: B2 VL with S12P, Q17E, P49S
notes: complete MAb; FR4 is its own entry; also called H133/L3; TF7M1612
B12: M1607 (antibody, V domains shown)
VH: B1 VH with Y27F, E35A, G54A, G56S, N61S, E62P, N63S, K65Q
VL: B2 VL with S12P, Q17E, P49S
notes: complete MAb; FR4 is its own entry; also called H189/L3; TF7M1607
B13: M1593 (wild-type human IgG1/kappa constant domains) (antibody)
heavy: not shown
light: DIVMTQTPLSLPVTPGEPASISCKSSQSLLSSGNQKNYLTWYLQKPGQSPQLLIYWASTRESGVPDRFSGSGSGTDFTLKISRVEAEDVGVYYCQNDYTYPLTFGQGTKLEIKRTVAAPSVFIFPPSDEQLKSGTASVVCLLNNFYPREAKVQWKVDNALQSGNSQESVTEQDSKDSTYSLSSTLTLSKADYEKHKVYACEVTHQGLSSPVTKSFNRGEC
notes: produced in unmodified CHO; also called H171/L3; copies: 2 + 2

The binders below were run against T1, recombinant extracellular domain (ECD) of human TF, amino acid 1-219 of the mature chain, C-terminal His6-tag (human, UniProt P13726 33-251) (assay: Biacore).
T1 construct: expressed in a mammalian system; used for ELISA and Biacore; biotinylated by NHS-ester for the Fab ELISA; also called His6-TF-ECD1-219; HumanTF1-219

Kd [nM] | Binder
0.61 | B1
0.41 | B2
0.55 | B3
0.37 | B4
0.2 | B5
0.66 | B6
0.56 | B7

Target: T2, Cynomolgous monkey (cyno) TF-ECD with His Tag (cynomolgus monkey, UniProt P13726 33-251 (human entry))
T2 construct: also called cyno antigen
T2 chain: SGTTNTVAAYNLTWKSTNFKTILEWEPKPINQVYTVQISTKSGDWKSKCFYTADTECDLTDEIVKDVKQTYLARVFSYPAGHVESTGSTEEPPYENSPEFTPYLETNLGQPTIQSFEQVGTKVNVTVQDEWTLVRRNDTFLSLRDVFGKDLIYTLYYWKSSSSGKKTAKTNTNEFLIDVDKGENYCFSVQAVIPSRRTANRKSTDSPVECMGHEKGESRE
Test: Biacore

Kd [nM] | Binder
1.28 | B8
1.55 | B1
2.81 | B2
2.24 | B3
1.52 | B4
1.18 | B5
1.96 | B6
1.34 | B7

Target: T1, recombinant extracellular domain (ECD) …
Test: Biacore
Remark: another data set of the same source

Kd [nM] | koff [s⁻¹] | kon [M⁻¹ s⁻¹] | Binder
0.61 | 5.9e-05 | 97300 | B1
0.31 | 5.9e-05 | 192000 | B9
0.41 | 4.1e-05 | 98800 | B2
0.55 | 5.1e-05 | 92200 | B3
0.3 | 5.6e-05 | 184000 | B10
0.36 |  |  | B4
0.19 | 1.8e-05 | 94800 | B5
0.38 | 6.3e-05 | 165000 | B11
0.35 | 6e-05 | 170000 | B12
0.66 | 6.7e-05 | 102000 | B6

What follows are binders tested against T3, endogenous human tissue factor on MDA-MB-231 breast cancer cells (human, UniProt P13726 33-295) (assay: cell-based or functional assay).

IC50 (ug/ml), IL-8 induction assay [µg/mL] | Binder
0.382 | B8
0.398 | B9
0.332 | B10
0.413 | B11
0.395 | B12
0.527 | B7

Target: T3, endogenous human tissue factor on …
Test: cell-based or functional assay
Remark: another data set of the same source

% IL-8 Inhibition [%] | Binder
83.8 | B8
103 | B1
87.3 | B2
98.6 | B3
87.9 | B4
88.5 | B5
98.3 | B6
96.1 | B7

The binders below were run against T4, recombinant human FcγIIIa receptor (human, UniProt P08637 17-208, limits assumed) (assay: cell-based or functional assay).
T4 sequence (P08637 17-208 limits assumed): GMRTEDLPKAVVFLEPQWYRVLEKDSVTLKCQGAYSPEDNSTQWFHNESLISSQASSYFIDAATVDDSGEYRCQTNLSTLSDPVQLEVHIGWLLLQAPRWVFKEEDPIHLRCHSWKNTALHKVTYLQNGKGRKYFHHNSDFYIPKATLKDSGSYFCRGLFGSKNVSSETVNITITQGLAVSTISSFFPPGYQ

EC50 (read off the curve) [µg/mL] | Binder
~0.02 | B13
~0.07 | B7

The binders below were run against T3, endogenous human tissue factor on … (assay: FACS on MDA-MB-231 cells).
Method: This assay is used to detect the direct binding of antibody to endogenouse human TF expressed in breast cancer cells. Prepare four point titrations of the test mAbs in FACS buffer (1% FBS in PBS) in duplicate. Start a titration at 1,000 ng/ml with 1:4 dilutions. […] Unstained cells and secondary antibody, Cy-5 conjugated Goat anti-Human IgG Fc antibody in FACS buffer 1:200, is used as controls and prepared immediately before use.
Using standard tissue culture technique, rinse adherent MDA-MB-231 cells in culture flask with once with PBS (w/o Ca+2/Mg+2). Lift cells with Versene and count the cells and seed 200,000 cells per well in a polystyrene V-bottom plate. FACS Analysis Protocol: Tissue Factor Binding. Pellet the cells in a Allegra X-15R centrifuge at 450×g for 3 minutes at 4° C., resuspend in FACS Buffer (2% FBS in PBS) and plate 200,000 cells per well in 200 uL. Pellet cells at 450×g for 3 minutes at 4° C. Discard supernatants and add 100 uL/well test or control mAbs to designated wells and incubate on ice or at 4° C. for 1 hour (+/−10 minutes). Pellet cells at 450×g for 3 minutes at 4° C. Discard supernatants and wash cells once in FACS buffer. Resuspend cells in 200 uL/well FACS buffer and pellet cells at 450×g for 3 minutes at 4° C. Discard supernatants and add 100 uL/well secondary antibody to designated wells (triterate), and incubate on ice for 1 hour (+/−10 minutes). Pellet cells at 450×g for 3 minutes at 4° C. Discard supernatants and wash cells 2 times in FACS buffer before resuspending the cells in 200 uL/well FACS Buffer (triterate). Pellet cells at 450×g for 3 minutes at 4° C. Discard supernatant and resuspend cells in 100 uL/well CytoFix Buffer. Analyze reactions by flow cytometry (BD FACSArray). The FlowJo Software is used for FACS data analysis by gating the main population of cells in the unstained control well and applying the gate to the whole data set. The data is exported as a table of the geometric mean fluorescence intensity (MFI) in the red channel for the applied gate.

Whole Cell Binding, Ave % [%] | Binder
107 | B1
111 | B2
124 | B3
114 | B4
94 | B5
109 | B6
101 | B7

These binders were tested against T4, recombinant human FcγIIIa receptor (assay: Fc receptor binding assay (method of a co-pending application or Biacore)).

Kd [nM] | Binder
210 | B13

Target: T3, endogenous human tissue factor on …
Test: cell-based or functional assay
Remark: another data set of the same source

IL-8 Induction, Ave % inhibition [%] | Binder
103 | B8
106 | B1
106 | B2
102 | B3
93 | B4
106 | B5
109 | B6
106 | B7

These binders were tested against T1, recombinant extracellular domain (ECD) … (assay: TF-ECD binding ELISA, chemiluminescent).

EC50 [µg/mL] | Binder
0.0088 | B8
0.0098 | B1
0.00922 | B2
0.01 | B3
0.00994 | B4
0.00903 | B5
0.00931 | B6
0.0117 | B7

Target: T2, Cynomolgous monkey (cyno) TF-ECD with …
Test: TF-ECD binding ELISA, chemiluminescent

EC50 [µg/mL] | Binder
0.0187 | B8
0.0199 | B1
0.0296 | B2
0.0228 | B3
0.0187 | B4
0.0198 | B5
0.0234 | B6
0.0173 | B7

What follows are binders tested against Innovin, lyophilized recombinant human tissue factor combined with phospholipids (human, UniProt P13726 33-295, limits assumed) (assay: cell-based or functional assay).

T½ Max (seconds), coagulation of human plasma [s] | Binder
169 | B8
198 | B1
154 | B9
199 | B2
197 | B3
199 | B10
195 | B4
192 | B5
163 | B11
152 | B12
198 | B6
164 | B13
173 | B7
